Reference: US20260273054A1 (published 2026)

B1: 0013-TCR319 (TCR, V domains shown)
Valpha: QSVTQPDIHITVSEGASLELRCNYSYGATPYLFWYVQSPGQGLQLLLKYFSGDTLVQGIKGFEAEFKRSQSSFNLRKPSVHWSDAAEYFCAVGGGGADGLTFGKGTHLIIQP
Vbeta: DVKVTQSSRYLVKRTGEKVFLECVQDMDHENMFWYRQDPGLGLRLIYFSYDVKMKEKGDIPEGYSVSREKKERFSLILESASTNQTSMYLCATLWYRQGADGYTFGSGTRLTVV
B2: 0013-TCR102 (TCR, V domains shown)
Valpha: VGLHLPTLSVQEGDNSIINCAYSNSASDYFIWYKQESGKGPQFIIDIRSNMDKRQGQRVTVLLNKTVKHLSLQIAATQPGDSAVYFCAETPDKLIFGTGTRLQVFP
Vbeta: DTGVSQDPRHKITKRGQNVTFRCDPISEHNRLYWYRQTLGQGPEFLTYFQNEAQLEKSRLLSDRFSAERPKGSFSTLEIQRTEQGDSAMYLCASSGGGDSPLHFGNGTRLTVT
B3: 0013-TCR1 (TCR, V domains shown)
Valpha: QKEVEQNSGPLSVPEGAIASLNCTYSDRGSQSFFWYRQYSGKSPELIMSIYSNGDKEDGRFTAQLNKASQYVSLLIRDSQPSDSATYLCAVYNNNDMRFGAGTRLTVKP
Vbeta: GVSQTPSNKVTEKGKYVELRCDPISGHTALYWYRQSLGQGPEFLIYFQGTGAADDSGLPNDRFFAVRPEGSVSTLKIQRTERGDSAVYLCASSFLAGHLYTGELFFGEGSRLTVL

Assays:
[1] = biological target: T1, EGFR L858R peptide on HLA-A*11:01 (human); assay: killing
T1 peptide: KITDFGRAK

[2] = biological target: T2, EGFR wild type (L858) peptide on HLA-A*11:01 (human); assay: killing
T2 peptide: KITDFGLAK

[3] = biological target: T3, EGFR wild type (L858) peptide on HLA-A*11:01 (human); assay: activation reporter or marker
T3 peptide: VKITDFGLAK

[4] = biological target: T4, EGFR L858R peptide on HLA-A*11:01 (human); assay: activation reporter or marker
T4 peptide: KITDFGRAKL

[5] = biological target: T5, EGFR wild type (L858) peptide on HLA-A*11:01 (human); assay: activation reporter or marker
T5 peptide: KITDFGLAKL

[6] = biological target: T1, EGFR L858R peptide on HLA-A*11:01; assay: activation reporter or marker
[7] = biological target: T2, EGFR wild type (L858) peptide on …; assay: activation reporter or marker

Row | Binder | binding result [1] | binding result [2] | binding result [3] | binding result [4] | binding result [5] | binding result [6] | binding result [7]
1 | B1 | recognises | no recognition | no recognition | no recognition | no recognition | – | –
2 | B2 | – | – | no recognition | no recognition | no recognition | recognises | no recognition
3 | B3 | recognises | no recognition | no recognition | – | no recognition | – | –
